According to the supplement of paper PMC10724198:

Assays:
Saccharomyces cerevisiae [1] = experiment: protein stability index of tFT-peptide fusion in wild type (PSI (0-1 scale)); higher = more stable (slower turnover); settings: genetic background: wild type
Saccharomyces cerevisiae [2] = experiment: protein stability index of tFT-peptide fusion in deletion strain of DOA10 (PSI (0-1 scale)); higher = more stable (slower turnover)
Procedure: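 MPS profiling in S. cerevisiae of two library types built from selected 12-aa C-degron peptides (IN1, IN2, LN1, LN3, VN2, R1-R5, W1-W3, Atg1 and Rpa12 C-termini): saturation mutagenesis libraries and C-terminal +1 capping libraries (13 aa). Each peptide is fused to the C-terminus of a sfGFP-mCherry timer, after a GGGS linker. Cells are FACS-sorted into 8 mCherry/sfGFP bins and sequenced. PSI runs from 0 (unstable) to 1 (stable), measured once in wild type and in the das1Δ or doa10Δ background.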
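Throughout, for protein stability index of tFT-peptide fusion in deletion strain of DOA10: PSI per variant is the weighted mean of its sequencing read distribution over the sorted stability bins, counting only variants with over 10 reads summed across bins.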
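Throughout, for protein stability index of tFT-peptide fusion in wild type: PSI derived as read-weighted mean over the 8 sorting bins, only variants exceeding 10 total reads kept, mCherry placed adjacent to the peptide and sfGFP distal.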

Row | Sequence | protein stability index (Saccharomyces cerevisiae [1]) | protein stability index (Saccharomyces cerevisiae [2])
1 | AITLPRCPLLLR | 0.265 | 0.662
2 | RSLRVLLPLYFRW | 0.215 | 0.677
3 | AITLPMCELLLR | 0.511 | 0.676
4 | CLVSLPILLFFRQ | 0.0783 | 0.362
5 | GLYMCIVGCWFR | 0.214 | 0.364
6 | AITLPMCPLVLR | 0.233 | 0.646
7 | CLVSLPPLLFFR | 0.0903 | 0.661
8 | RVTRLSAIYFRI | 0.22 | 0.458
9 | RSLRVWLPLYFR | 0.166 | 0.693
10 | RVTRLDAIYFRT | 0.546 | 0.703
11 | RVTRLDAIYFRH | 0.604 | 0.716
12 | RSLRVLLFLYFR | 0.21 | 0.45
13 | AITLPMLPLLLR | 0.125 | 0.633
14 | RVTRLWAIYFRI | 0.167 | 0.377
15 | RVTRLAAIYFRI | 0.173 | 0.38
16 | AYTLPMCPLLLR | 0.171 | 0.657
17 | RVTRLDAIYFII | 0.0744 | 0.111
18 | AITLPMCPLLYR | 0.529 | 0.652
19 | AITLPMTPLLLR | 0.229 | 0.644

Row | Sequence | protein stability index (Saccharomyces cerevisiae [1]) | protein stability index (Saccharomyces cerevisiae [2])
20 | CLFSLPILLFFR | 0.0583 | 0.581
21 | GLYMCSVGCWFE | 0.474 | 0.512
22 | ACTLPMCPLLLR | 0.318 | 0.678
23 | AITEPMCPLLLR | 0.593 | 0.648
24 | CLWSLPILLFFR | 0.0887 | 0.594
25 | AITLPMCPLLRR | 0.62 | 0.717
26 | CLVSLPCLLFFR | 0.064 | 0.639
27 | CLVSLPILLAFR | 0.115 | 0.594
28 | RVTRLDAAYFRI | 0.653 | 0.704
29 | RVTRLDAIYFYI | 0.425 | 0.449
30 | CLVSLPILLFIR | 0.0496 | 0.46
31 | ILVSLPILLFFR | 0.111 | 0.545
32 | AITLPMCPLLTR | 0.561 | 0.606
33 | RVTRLDAIYFRIQ | 0.218 | 0.256
34 | AITLPMCPLLSR | 0.573 | 0.594
35 | GLYMCSVGDWFR | 0.677 | 0.689
36 | CLVSLPILLFFL | 0.293 | 0.45
37 | CLCSLPILLFFR | 0.106 | 0.615
38 | AITLPMCFLLLR | 0.0902 | 0.62

Row | Sequence | protein stability index (Saccharomyces cerevisiae [1]) | protein stability index (Saccharomyces cerevisiae [2])
39 | GLYCCSVGCWFR | 0.342 | 0.658
40 | CLVSLPILLFFRV | 0.0545 | 0.413
41 | CLVSLPISLFFR | 0.101 | 0.656
42 | AINLPMCPLLLR | 0.243 | 0.656
43 | AITLPMQPLLLR | 0.238 | 0.639
44 | CLVSLPILLDFR | 0.553 | 0.643
45 | RKTRLDAIYFRI | 0.49 | 0.628
46 | RVTRRDAIYFRI | 0.485 | 0.673
47 | AITLPMCKLLLR | 0.392 | 0.663
48 | AITLPMCPLHLR | 0.566 | 0.68
49 | GLYMCSVGIWFR | 0.165 | 0.409
50 | AITLPMCPLKLR | 0.549 | 0.668
51 | RVTRLDAIYFEI | 0.69 | 0.725
52 | RVTRLDAIYFRS | 0.641 | 0.72
53 | CLVSLHILLFFR | 0.144 | 0.292
54 | CLVSLPQLLFFR | 0.0822 | 0.655
55 | GLYMCSYGCWFR | 0.299 | 0.677
56 | RSLRVLLPLYFC | 0.0775 | 0.175
